Assay: soluble on expression in E. coli; label from the status in PepcDB or PDB records

| Sequence | soluble on expression in E. coli |
| --- | --- |
| AAEVGDDFLGDFVVGERVWVNGVKPGVVQYLGETQFAPGQWAGVVLDDPVGKNDGAVGGVRYFECPALQGIFTRPSKLTRQP | soluble |
| AAIYHLDVSGQATIRFRPPAFLKTLVSEHAGTTRLNTLSMIHHDDRHMLSNAYSKLREAKHSLTLVYRIVTPEGKLHWIEDHMRSSFSDD | not soluble |
| AARPRKNNVSVPNLYPLYSRKVNKVYWRYKHPVTGKFHALGTNEAEAIAIATEANTRLAEQRTRQILAISDRIATSKGKAITTSTWLDRYQAIQDDRLKSGDIRLNTYKQKAKPVSLLRERAGMKLISAVDVRDIAQLLDEYIAAGRPRMAQVVRSVLIDVFKEAQHYGEVPPGYNPALATKQPRRKITRQRLSLEEWKKIFDIADATHRYMGNAMLLALVTGQRLGDISRMKFSDIWDDHLHVIQEKTGSKIAIPLSLRLNAINWSLRDVVARCRDYAVSAYLVHFFRSTSQAERGAQVKANTLTMNFSKARDLARIDWGEGSPATFHEQRSLSERLYKEQGLDTQKLLGHKTQQQTDRYHDDRGKGWSKVAL | not soluble |
| ADFEVHMLNKGKDGAFVFEPASLKVAPGDTVTFIPTDKGHNVETIKGMIPDGAEAFKSKINENYKVTFTAPGVYGVKCTPHYGMGMVGVVQVGDAPANLEAVKGAKNPKKAQERLDAALAALGN | soluble |
| ADPAECSIKVMCRFRPLNEAEILRGDKFIPKFKGEETVVIGQGKPYVFDRVLPPNTTQEQVYNACAKQIVKDVLEGYNGTIFAYGQTSSGKTHTMEGKLHDPQLMGIIPRIAHDIFDHIYSMDENLEFHIKVSYFEIYLDKIRDLLDVSKTNLAVHEDKNRVPYVKGCTERFVSSPEEVMDVIDEGKANRHVAVTNMNEHSSRSHSIFLINIKQENVETEKKLSGKLYLVDLAGSEKV | soluble |
| ADVTITVNGKVVAKPCTVSTTNATVDLGDLYSFSLMSAGAASAWHDVALELTNCPVGTSRVTASFSGAADSTGYYKNQGTAQNIQLELQDDSGNTLNTGATKTVQVDDSSQSAHFPLQVRALTVNGGATQGTIQAVISITYTYS | soluble |
| AEDAKLRINGATVTSATNKVTNYIPGVTINLKKETTGAEKLTIQDQSDEKAASMITSFVNTYNALTSTMKTYTGKGTILQASAADLEANRALNNVFQHKKDGNTLFDFGISVDKEGVLKVDETAMKKMVAEDPTAVERFFFGIGGIGDELYQSLNKTFGSTGFISDETTSMTNEINKLNLKLTDITSRNDTLLTNITDQYNKWLEMMQAMQSDAMTLDALIDGMNSSNK | not soluble |
| AEEYGYIVTDQKPLSLAAGVKLLEILAEHVHMSSGSFINISVVGPALTFRIRHNEQNLSLADVTQQAGLVKSELEAQTGLQILQTGVGQRE | soluble |
| AEPQPPSGGLTDEAALSCCSDADPSTKDFLLQETMLRVKDPKKSLDFYTRVLGMTLIQKCDFPIMKFSLYFLAYEDKNDIPKEKDEKIAWALSRKATLELTHNWGTEDDETQSYHNGNSDPRGFGHIGIAVPDVYSACKRFEELGVKFVKKPDDGKMKGLAFIQDPDGYWIQILNPNKMATLM | soluble |
| AERGELDLTGAKQNTGVWLVKVPKYLSQQWAKASGRGEVGKLRIAKTQGRTEVSFTLNEDLANIHDIGGKPASVSAPREHPFVLQSVGGQTLTVFTESSSDKLSLEGIVVQRAECRPA | soluble |
| AGADGTSEELADNFVFGFHATVEALQQGRGNKLFLQEDARGEKIEQLKQAAKEQAVPVKWVPKAKLDTMSDHGVHQGMVLAITA | not soluble |
| AGFKPAPPAGQLGAVIVDPYGNAPLTALVDLDSHVISDVKVTVHGKGEKGVEISYPVGQESLKTYDGVPIFGLYQKFANKVTVEWKENGKVMKDDYVVHTSAIVNNYMDNRSISDLQQTKVIKVAPGFEDRLYLVNTHTFTAQGSDLHWHGEKDKNAGILDAGPATGALPFDIAPFTFIVDTEGEYRWWLDQDTFYDGRDRDINKRGYLMGIRETPRGTFTAVQGQHWYEFDMMGQVLEDHKLPRGFADATHESIETPNGTVLLRVGKSNYRRDDGVHVTTIRDHILEVDKSGRVVDVWDLTKILDPKRDALLGALDAGAVCVNVDLAHAGQQAKLEPDTPFGDALGVGPGRNWAHVNSIAYDAKDDSIILSSRHQGVVKIGRDKQVKWILAPSKGWEKPLASKLLKPVDANGKPITCNENGLCENSDFDFTYTQHTAWISSKGTLTIFDNGDGRHLEQPALPTMKYSRFVEYKIDEKKGTVQQVWEYGKERGYDFYSPITSIIEYQADRNTMFGFGGSIHLFDVGQPTVGKLNEIDYKTKEVKVEIDVLSDKPNQTHYRALLVRPQQMFK | soluble |
| AGKTLYDKLWDMHLVKQRDDGSALIYIDRHILHEVTSPQAFEGLRLAGRKPWRIDANIATPDHNVPTTRTERKGGIAAIADEVSRLQVQTLDENCDDFGITEFKMNDVRQGIVHVVGPEQGATLPGMTVVCGDSHTSTHGAFGALAHGIGTSEVEHVLATQCLVAKKMKN | not soluble |
| AGKTLYDKLWEAHEVKRRDDGSSLIYIDRHIIHEVTSPQAFEGLRLANRKPWRIDANIATPDHNVPTTPERKGGIEAIVDQVSRLQVQTLDENCDEYGIVEFKMNDERQGIVHVISPEQGATLPGMTVVCGDSHTSTHGAFGALAHGIGTSEVEHVLATQCLVAKKMKN | not soluble |
| AGNATEVPANSTVLSFCAFAVDPAKAYKDYLASGGQPITNCVKMLCTHTGTGQAITVTPEANMDQESFGGASCCLYCRCHIDHPNPKGFCDLKGKYVQIPTTCANDPVGFTLRNTVCTVCGMWKGYGCSCDQLREPLMQSADASTFLNGFAV | soluble |
| AGNTSYFLRRKIFRKIMHITAPSHDQYGSSTLLVRLTNDVYLMEIMTFDFL | not soluble |
| AHHHHHHGSEYKPIRKVVSGNYAAAYAALHARVQVVAAYPITPQTSIIEKIAEFIANGEADIQYIPVESEHSAMAACIGASATGARTFTATSAQGLALMHEMLHWAAGARLPIVMVDVNRAMAPPWSVWDDQTDSLSQRDTGWMQFYAENNQEVYDGVLMAYKVAETVNVPAMVVESAFILSHTYDVVEMIPQELVDEFLPPRKPLYSLANFDEPIAVGALATPNDYYEFRYKLAKAHEEAKKVIKEVGKEFGERFGRDYSQMIETGYIDDADFVFMGMGSLMGTVKEAVDLLRKEGYKVGYAKVRWFRPFPKEELVEIAESVKGIAVLDRNFSFGQEGILFTESKGALYNSSAHPLMKNYIVGLGGRDVTVKDIKAIADDMKKVIESGKVDKEVVWYHLKR | soluble |
| AHHHHHHGSGDNRKVRVVVGGVFDILHVGHVHFLKMAKELGDELIVIVAHDETVKRRKGRPPINPAEDRAELLKSIRYVDDVVIGEPGEISIDLIKRLKPDVIALGPDQDFSCEELKKRLRKEGINAEVIRLPYLYKSDRAKTSKIIQRIIETFCE | not soluble |
| AHHHHHHGSKARGRAWKYGDNIDTDVIIPARYLNTSDPKELAQHVLEDLDPEFRYKMKPGDIIVAGENFGCGSSREHAPLAIKAAGVSAVIAKSFARIFYRNAINIGLPILEAPEAVERIETGDEIEIDFSTGEIRNLTKGEVYHANPFPEFIMEIIKAGGLVEWAKRRLAK | soluble |
| AHHHHHHGSKEKRKYFMAHRIGVIQRSKIRELFERASKMENVISLGIGEPDFDTPNNIKEAAKRALDEGWTHYTPNAGIPELREAIAEYYKKFYGIDVEVDNVLVTAGAYEATYLAFETMLEQGDEVIIPDPAFVCYVEDAKLAEAKPIRLPLREENDFKPDIDELLERITKRTRMIVINYPNNPTGAVLDKETAKAIADVAEDYNIYILSDEPYEHFLYDDAKHYPMIKFAPDNTILANSFSKTFAMTGWRLGFVIAPTQIIREMIKLHAYIIGNVASFVQVAGIEALRSKESWKAVEEMRKEYNERRKLVLQRLRKMPYIKVREPKGAFYVFPNISETEMSSEEFSEWLLEKAKVVVIPGTAFGENGEGYVRISYATSREKLIEAMDRIEKALEEI | soluble |
| AHHHHHHGSKFEELNEKIKKVYGKVRTIDDFHWHISDNLIHGIHKKSGLRLEIRIAESKEAADKIAQKKEPGNLMVIVVPGKETFYVNNGAFVLALKFLRSTIQDISDHIVWAGFKVVERDGALEQEDIYEYLGGRLIEHIKSGMVNGKDYIFWQFYKCEHCGKYVDIENLVRHMKTHGEDVKEWSEEKYEVLELSFEDKKVYNKFGKEVPLEEFVEETQDFIKEVFES | soluble |
| AHHHHHHGSKTLKVYIPGIKFPSISVTGNYCALNCAHCGRHYLEGMKKITRLNLVDKCVEMEKEGYVGCLLSGGMDSRLKVPLDKFKDEIREIKEKTRLKINAHVGFIDEDDLEWLKYIDVVSLDFVGDNEVIKRVYKIDKTVNDYLKILDILTKERIKVAPHITIGLDFGRIHWEYEAIDLLSEYPIDVLVLNILIPTPGTEMENVKVSMEEALNVVRYAREEFKGELSIGCMRPFGRWREEFDKRAILIGVDRITNPPRKVIEWAKQFRKVEIHFECCVI | not soluble |
| AHHHHHHGSPPIIDPHILRSLHRSELRRRILHYLYEIYPSATYLSEIARVVSSDPSNVRGALVGLGNRYNSESSLVYLGLVEEIVNNGFKYYRLTEYGKKVVEMLKDYQTYYRKFM | not soluble |
| AHHHHHHGSRERGVAFFSGGKDGLYALYLAEKEGIEVPYLLTLKTSIGLSPHWENLSSLKALAENMGKKLLTFDMKYGSKALAEFISSLDVDYIIAGDVFLEDHLKWINLLAEKAGIKSFEPLWGKNTLELAKEMLNAGFKYSIIAVDKNKLEKTWLGYTFSSTRDIEIFIYENPTIDPLGEGGEFHTITLSSPLFKDEFTLEKISVEESERYWWMRFRVVGNDIKNVRVKGHNSRKDG | not soluble |
| AHHHHHHGSSSIEWNEKTFAKFAYLSDPRTKGELVAYVLTKANLKDNKYENTIVIENLKNNARRFIENATMPRISPDGKKIAFMRANEEKKVSEIWVADLETLSSKKILEAKNIRSLEWNEDSRKLLIVGFKRREDEDFIFEDDVPAWFDDLGFFDGEKTTFWIFDTESEEVIEEFEKPRFSSGIWHRDKIVVNVPHREIIPQYFKFWDIYIWEDGKEEKMFEKVSFYAVDSDGERILLYGKPEKKYMSEHNKLYIYDGKEVMGILDEVDRGVGQAKIKDGKVYFTLFEEGSVNLYIWDGEIKPIAKGRHWIMGFDVDEIVVYLKETATRLRELFTWDGEEKQLTDYNDPIFAKLKTFEPVHFRYKSLDLEIDGWYMKPELKEGEKAPVIVFVHGGPKGMYGYYFKYEMQLMAAKGYYIVYVNPRGSNGYSEDFALRVLTRTGLEDFQDILNGIEEFLKLEPQADRERIGITGISYGGYMTNWALTQSDLFKAGISENGISYWLTSYAFSDIGLWFDKEVIGENPLENENFRRLSPLFYAKNVKAPILLIHSLEDYRCPLDQSLMFYHVLKDLGKEAYIAIFKRGAHGHSIRGQPRHRMKRYKLFVEFFERKLKKYEEGFPIEKILKE | not soluble |
| AHHHHHHGSVRIEVVDIEKPEGVEVIIGQGNFSIFTVDDLARALLTTVPGIKFGIAMNEAKPQLTRYTGNDPELEKLAAKNALKIGAGHVFVILMKNAYPINVLNTIKNHPAVAMVYGASENPFQVIVAETELGRAVIGVVDGKAATKIETEEQKKERRELVEKIGYKID | not soluble |
| AHHHHHHGSVVKRTMTKKFLEEAFAGESMAHMRYLIFAEKAEQEGFPNIAKLFRAIAYAEFVHAKNHFIALGKLGKTPENLQMGIEGETFEVEEMYPVYNKAAEFQGEKEAVRTTHYALEAEKIHAELYRKAKEKAEKGEDIEIKKVYICPICGYTAVDEAPEYCPVCGAPKEKFVVFE | soluble |
| AHQTKVDTLIVTNSKAWKPFSYVSQDGEPKGILIDFWREYAERNHVRVEFLLLDWEESLRAVKEGRADVHAGLIYSEARDKYLDFGAVIMPIQTKLYVNKDMLAVDIKGVLTGEVELPIGLVKGSYEAEFVRANYPRASLVEYLNNDAMIRAAVEKNILYFVADLQVAN | not soluble |

— the DeepSol protein solubility set
